# Experimental data: paper PMC8915372
# Target: HLA-A*03:01 (HLA class I molecule of HLA-A3+ NBS fibroblasts) (human | human (endogenous in NBS fibroblasts))
# Assay: affinity purification with mass spectrometry
binder,measurement,value
ATFYVRTTINK [A3-RPL28^74-84(p76S>F) 11-mer peptide],amount of peptide detected by PRM in the HLA class I eluate (fmol/million cells),3.67
